Data taken from patent US20250042984A1.

What was measured:
[1] = molecular target: VEGF-B (extracellular domain) (UniProt P49765); test: potency ELISA, VEGF-B coated plate; 160 mg/mL formulation in glass vials, 6 months at 25 C
[2] = molecular target: VEGF-B (extracellular domain) (UniProt P49765); test: potency ELISA, VEGF-B coated plate; 160 mg/mL formulation in glass vials, 3 months at 25 C
[3] = molecular target: VEGF-B (extracellular domain) (UniProt P49765); test: potency ELISA, VEGF-B coated plate; 160 mg/mL formulation in glass vials, 6 months at 5 C
[4] = molecular target: VEGF-B (extracellular domain) (UniProt P49765); test: potency ELISA, VEGF-B coated plate; 160 mg/mL formulation in glass vials, 9 months at 25 C
[5] = molecular target: VEGF-B (extracellular domain) (UniProt P49765); test: potency ELISA, VEGF-B coated plate; 160 mg/mL formulation in glass vials, 12 months at 5 C
[6] = molecular target: VEGF-B (extracellular domain) (UniProt P49765); test: potency ELISA, VEGF-B coated plate; 160 mg/mL formulation in glass vials, 12 months at 25 C
[7] = molecular target: VEGF-B (extracellular domain) (UniProt P49765); test: potency ELISA, VEGF-B coated plate; 160 mg/mL formulation in glass vials, 6 months at 35 C
[8] = molecular target: VEGF-B (extracellular domain) (UniProt P49765); test: potency ELISA, VEGF-B coated plate; 160 mg/mL formulation in glass vials, 9 months at 5 C
[9] = molecular target: VEGF-B (extracellular domain) (UniProt P49765); test: potency ELISA, VEGF-B coated plate; 160 mg/mL formulation in glass vials, 1 month at 35 C
[10] = molecular target: VEGF-B (extracellular domain) (UniProt P49765); test: potency ELISA, VEGF-B coated plate; 160 mg/mL formulation in glass vials, 9 months at 35 C
[11] = molecular target: VEGF-B (extracellular domain) (UniProt P49765); test: potency ELISA, VEGF-B coated plate; 160 mg/mL formulation in glass vials, 0 months (25 C table)
[12] = molecular target: VEGF-B (extracellular domain) (UniProt P49765); test: potency ELISA, VEGF-B coated plate; 160 mg/mL formulation in glass vials, 0 months (35 C table)
[13] = molecular target: VEGF-B (extracellular domain) (UniProt P49765); test: potency ELISA, VEGF-B coated plate; 160 mg/mL formulation in glass vials, 1 month at 25 C
[14] = molecular target: VEGF-B (extracellular domain) (UniProt P49765); test: potency ELISA, VEGF-B coated plate; 160 mg/mL formulation in glass vials, 12 months at 35 C
[15] = molecular target: VEGF-B (extracellular domain) (UniProt P49765); test: potency ELISA, VEGF-B coated plate; 160 mg/mL formulation in glass vials, 3 months at 35 C
[16] = molecular target: VEGF-B (extracellular domain) (UniProt P49765); test: potency ELISA, VEGF-B coated plate; 160 mg/mL formulation in glass vials, 1 month at 5 C
[17] = molecular target: VEGF-B (extracellular domain) (UniProt P49765); test: potency ELISA, VEGF-B coated plate; 160 mg/mL formulation in glass vials, 3 months at 5 C
[18] = molecular target: VEGF-B (extracellular domain) (UniProt P49765); test: potency ELISA, VEGF-B coated plate, HRP detection, 4PL and parallel line analysis; 160 mg/mL formulation in glass vials, 0 months (5 C table)

Sequence of UniProt P49765 (P49765 22-207): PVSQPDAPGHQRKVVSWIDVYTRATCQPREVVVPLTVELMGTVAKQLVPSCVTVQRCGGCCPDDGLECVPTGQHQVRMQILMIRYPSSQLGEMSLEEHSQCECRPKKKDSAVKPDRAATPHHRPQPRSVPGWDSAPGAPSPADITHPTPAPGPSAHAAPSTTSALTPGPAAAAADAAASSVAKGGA

Surrogate potency for VEGF-B binding by ELISA (relative to CSL346 reference standard) (% relative to reference standard) [1]: 95
Surrogate potency for VEGF-B binding by ELISA (relative to CSL346 reference standard) (% relative to reference standard) [2]: 113
Surrogate potency for VEGF-B binding by ELISA (relative to CSL346 reference standard) (% relative to reference standard) [3]: 101
Surrogate potency for VEGF-B binding by ELISA (relative to CSL346 reference standard) (% relative to reference standard) [4]: 101
Surrogate potency for VEGF-B binding by ELISA (relative to CSL346 reference standard) (% relative to reference standard) [5]: 110
Surrogate potency for VEGF-B binding by ELISA (relative to CSL346 reference standard) (% relative to reference standard) [6]: 136
Surrogate potency for VEGF-B binding by ELISA (relative to CSL346 reference standard) (% relative to reference standard) [7]: 95
Surrogate potency for VEGF-B binding by ELISA (relative to CSL346 reference standard) (% relative to reference standard) [8]: 109
Surrogate potency for VEGF-B binding by ELISA (relative to CSL346 reference standard) (% relative to reference standard) [9]: 115
Surrogate potency for VEGF-B binding by ELISA (relative to CSL346 reference standard) (% relative to reference standard) [10]: 98
Surrogate potency for VEGF-B binding by ELISA (relative to CSL346 reference standard) (% relative to reference standard) [11]: 105
Surrogate potency for VEGF-B binding by ELISA (relative to CSL346 reference standard) (% relative to reference standard) [12]: 105
Surrogate potency for VEGF-B binding by ELISA (relative to CSL346 reference standard) (% relative to reference standard) [13]: 107
Surrogate potency for VEGF-B binding by ELISA (relative to CSL346 reference standard) (% relative to reference standard) [14]: 106
Surrogate potency for VEGF-B binding by ELISA (relative to CSL346 reference standard) (% relative to reference standard) [15]: 92
Surrogate potency for VEGF-B binding by ELISA (relative to CSL346 reference standard) (% relative to reference standard) [16]: 109
Surrogate potency for VEGF-B binding by ELISA (relative to CSL346 reference standard) (% relative to reference standard) [17]: 96
Surrogate potency for VEGF-B binding by ELISA (relative to CSL346 reference standard) (% relative to reference standard) [18]: 105
Substance: anti-VEGFB antibody (CSL346)
